Legend:
[1] = target: T1, DcR3 binding to membrane LIGHT (EL4-LIGHT cells) (Homo sapiens, UniProt O43557); assay: Competition binding of anti-membrane LIGHT antibodies with DcR3-His on EL4-LIGHT cells; details: mAb at up to 100 nM
T1 construct: expressed in transfected cells; host or cells: EL4 mouse lymphoma cells, stably transduced
Method: DcR3 (TNFRSF6B) is a decoy receptor that competes with receptors for ligand binding. DcR3 can bind and neutralise LIGHT with high affinity and TL1A and FasL with lower affinity (Zhan C et al. Structure. 2011, 19:162-71 “Decoy strategies: the structure of TL1A:DcR3 complex”). Stably transduced LIGHT-expressing EL4 cells (mouse lymphoma cell line; EL4-LIGHT) were used for the flow cytometry-based competition-binding analysis.
EL4-LIGHT cells (0.25×10^6) were preincubated with anti-membrane LIGHT mAbs (0-300 nM) for 15 min at 4° C. followed by incubation with DcR3-His tagged (1 nM, Creative BioMart; ref:TNFRSF6B-552H, lot:962512) for 30 min at 4° C. The samples were then incubated with mouse anti-histag antibody (diluted 1:500, Biolegend, cat. no. 652502) for 30 minutes at 4° C., followed by incubation with anti-mouse APC (dil 1:500, BDBiosciences, cat. no. 550826) for 30 minutes at 4° C. The tubes were washed three times after each of the detection antibody stages and flow cytometry analysis was performed. Specific mean fluorescence intensity (MFI) obtained from the binding of DcR3-His to LIGHT on EL4 cells were used to determine the levels of competition binding.

[2] = tested on: wild type and mutated membrane LIGHT; assay: Alanine scanning mutagenesis of membrane LIGHT and flow cytometry (HEK293FF cells); format: binding, human; details: single substitutions F57A to E86A and four amino acid substitutions 60-63 to 96-99
Source text: The full length LIGHT gene was synthesized by GeneArt (ThermoFisher Scientific) and cloned into the mammalian expression vector pcDNA 3.1(+). The following Ala mutations were introduced into the LIGHT gene: 30 single amino acid alanine substitutions from F57A to E86A; 2 single amino acid alanine substitutions; G188A, R189A; one serine substitution, A190S; 17 single amino acid alanine substitutions; T191A to V207A and 10 four amino acid alanine substitutions, 60-63, 64-67, 68-71, 72-75, 76-79, 80-83, 84-87, 88-91, 92-95 and 96-99. Constructs were reconstituted according to manufacture instructions, using DEPC-treated and sterile filtered water. Competent TOP10 E. coli cells were transformed with 100 ng of each construct and a single colony from each construct was picked and used to inoculate 10 ml of LB/carb100/glu2% medium and grown overnight at 37° C., 200 rpm. The extraction of the construct DNA was performed using the Qiagen QIAprep Spin Miniprep Kit (250) and the concentration was determined by measuring the O.D. at 260 nm in a spectrophotometer.
HEK293FF cells were cultured in Freestyle™293 expression medium (ThermoFisher scientific cat. no. 12338018) supplemented with 2 mM L-Glutamine. The day of transfection the cells were seeded in a 24-well plate at 0.6×10^6 cells/well. Lipofectamine 2000 (ThermoFisher scientific), 3 μl, was mixed with 50 μl OptiMEM medium (GIBCO) and then added to 50 μl Opti-MEM medium containing 3 ug plasmid DNA and incubated for 20 min at RT to form DNA-Lipofectamine 2000 complexes which were then added to the HEK293FF cells and incubated at 37° C., 5% CO2 for 24 hours. For each construct, in duplicate, 0.60×10^6 cells/well were used in a 96 well round bottom plate. Cells were centrifuged for 3 minutes at 300×g at 4° C., the supernatant discarded and the cells washed with 150 μl FACS buffer (0.5% FBS in phosphate buffered saline). This process was repeated 3 times. For each construct, […] cells/well were incubated with anti-LIGHT antibodies at the EC50 concentration and with positive controls of anti-LIGHT mAb MAB664 (R&D Systems), mAb F19 (EP2292663) or LTBR-Fc (R&D Systems), in a final volume of 50 μl/well for 30 min at 4° C., with shaking. The wells were washed 3 times as above and 50 μl/well of goat anti-human IgG FITC (1:1500 dilution in FACS buffer, SIGMA F9512-2ML) or goat anti-mouse APC (1/500 dilution in FACS buffer, BDBioscience 550826), as appropriate, was added to the wells and incubated for 30 min at 4° C. protected from the light, with shaking. The cells were then washed as above, resuspended in 100 μl of FACS buffer and binding of the antibodies to the constructs was measured using flow cytometry and a total of 10,000 cells were acquired for each sample. Controls of buffer and secondary antibody only as well as HEK293FF non transfected cells were also used.
All of the mAbs of this invention show a similar profile in that their epitope is located at amino acids 188-197 of LIGHT. […] The epitope of the mAbs of this invention defined by alanine scanning mutagenesis are residues 188-197 of LIGHT. This is visually depicted in FIG. 8 utilising a 3D visualisation of the LIGHT trimer from the crystal structure of LIGHT from Liu et al. (Structure 22: 1252-62; 2014). This would result in the mAbs binding to the “tip” of the LIGHT trimer and explaining the 1:1 binding. The impact of this epitope would result in […] less dosing of mAb 3B04 being required to neutralise membrane LIGHT compared to, for example, mAbs F19 and F23 (of EP2292663) which bind both soluble and membrane LIGHT equally and bind LIGHT in the ratio 3:1.

[3] = target: T2, soluble LIGHT amino acids 64-240 (Homo sapiens, UniProt O43557); assay: BIAcore (SPR) binding to soluble LIGHT 64-240
T2 construct: 64-240 LIGHT (Abcam, ab82123); purchased Abcam ab82123
Method: Real-time binding interactions between captured antibody (chimeric anti-membrane LIGHT monoclonal antibody) captured on a biosensor matrix via goat anti-human Fc IgG and recombinant soluble LIGHT were measured by surface plasmon resonance (SPR) using the BIAcore system (GE Healthcare) according to manufacturer's instructions and standard procedures. Briefly, soluble LIGHT was diluted in HBS running buffer (GE Healthcare) and aliquots were injected through the immobilized protein matrices at a flow rate of […]. BIAevaluation software was used to calculate association rate (ka), dissociation rate (kd) and affinity (KD).
The specificity of two lead anti-membrane LIGHT mAbs to soluble LIGHT was determined by BIAcore analysis and compared to the KD calculated from the EC50 values in Table 7 (results in Table 9). In brief, mAbs 3D12, 3B04 were compared to a mAb that binds both soluble and membrane LIGHT, F19, (F19 IgG4 mAb from EP2292663). An irrelevant anti-HEL mAb, 2A11, was used as a negative control. The mAbs were captured on an anti-human Fc mAb coated chip and soluble LIGHT was passed over the surface and the kinetic parameters were calculated using BIAcore 3000 software. The soluble LIGHT preparations used were amino acids 74-240 LIGHT (R&D Systems, 664-LI-025) and 64-240 LIGHT (Abcam, ab82123).

T2 sequence (O43557 64-240): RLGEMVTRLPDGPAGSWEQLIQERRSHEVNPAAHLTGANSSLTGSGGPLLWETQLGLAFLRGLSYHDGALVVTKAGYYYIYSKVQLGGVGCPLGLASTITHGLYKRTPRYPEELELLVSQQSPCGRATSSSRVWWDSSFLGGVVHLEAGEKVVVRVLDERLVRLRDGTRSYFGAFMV
T1 sequence (O43557 whole entry): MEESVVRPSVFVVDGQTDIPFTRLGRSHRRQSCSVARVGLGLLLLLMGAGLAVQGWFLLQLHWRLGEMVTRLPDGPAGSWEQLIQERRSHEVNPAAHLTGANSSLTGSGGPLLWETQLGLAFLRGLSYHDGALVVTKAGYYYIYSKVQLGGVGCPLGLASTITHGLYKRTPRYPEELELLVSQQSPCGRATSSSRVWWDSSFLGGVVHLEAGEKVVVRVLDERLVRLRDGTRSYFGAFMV

Molecule | Inhibition of DcR3 binding to membrane LIGHT [1] | Binding to LIGHT alanine substitution constructs versus WT LIGHT [2] | 64-240 LIGHT Ka [3] [M⁻¹ s⁻¹] | 64-240 LIGHT Kd [3] [s⁻¹]
3B04: parental mouse anti-membrane LIGHT antibody, VL SEQ ID NO 1, VH SEQ ID NO 5; tested as chimeric human IgG4 mAb (antibody, listed as Homo sapiens, V domains shown) VH: QVQLQQPGAELVRPGASVTLSCKASGYTFTDYEMHWVKQTPVHGLEWIGEIDPETGDTAYSQKFKGKATLTADKSSSTAYMEFRSLTSEDSAVYYCSRETDYFFDYWGQGTTLTVSS VL: DIQMTQTPASLSASVGETVTITCGASENIYGALNWYQRKQGKSPQLLIYGATNLADGMSSRFSGSGSGRQYSLKISSLHPDDFATYYCQNVLTTPWTFGGGTKLEIKR | only partially inhibit | no difference in binding | 251000 | 0.00345
3D12: parental mouse anti-membrane LIGHT antibody, VL SEQ ID NO 41, VH SEQ ID NO 45; tested as chimeric human IgG4 mAb (antibody, listed as Homo sapiens, V domains shown) VH: QVQLQQPGAELVRPGASVTLSCKASDYTFTDSEIHWVKQTPVHGLEWIGEIDPETGGTAYNQKFKGKATLTADKSSSTAYMELRSLTSEDSAVYYCSRETDYFFDYWGQGTTLTVSS VL: DIQMTQSPASLSASVGETVTITCGASENIYGALNWYQRKQGKSPQLLIYGATNLADGMSSRFSGSGSGRQYSLKISSLHPDDVATYYCQNVLSTPWTFGGGTKLEIKR | only partially inhibit | no difference in binding | 219000 | 0.00234
